Laboratory results from article PMC9352680, “A comprehensive thermodynamic model for RNA binding by the Saccharomyces cerevisiae Pumilio protein PUF4”.

T1: PUF4 RNA-binding domain (Saccharomyces cerevisiae, UniProt P25339 537-888)
T1 sequence: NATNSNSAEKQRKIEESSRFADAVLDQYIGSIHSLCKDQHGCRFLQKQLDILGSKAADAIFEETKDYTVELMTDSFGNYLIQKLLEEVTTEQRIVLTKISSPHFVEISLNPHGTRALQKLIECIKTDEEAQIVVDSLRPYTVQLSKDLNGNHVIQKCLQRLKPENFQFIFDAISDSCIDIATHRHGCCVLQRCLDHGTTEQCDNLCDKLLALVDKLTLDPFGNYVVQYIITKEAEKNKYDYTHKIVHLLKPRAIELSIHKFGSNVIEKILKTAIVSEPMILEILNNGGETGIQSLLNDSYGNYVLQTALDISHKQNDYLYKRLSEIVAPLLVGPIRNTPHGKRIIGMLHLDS


Target: T1, PUF4 RNA-binding domain
Experiment: Mg; RNA-MaP; 20 mM Na-HEPES pH 7.4, 30 mM KOAc, 0.75 mM MgCl2, 0.1% Tween-20, 5% glycerol, 0.1 mg/mL BSA, 2 mM DTT; 25 C; 0.0125-409.6 nM protein
Conditions: tags: N-His6-TEV cleaved; C-SNAP kept, Cy3B-labelled; label: tethered on chip by stalled RNA polymerase

Row | Binder | Kd [nM]
1 | UCUCUUUCUCUCGUAUUAUUAUCUCUU (ssRNA) [Ie_S1_P5E.1_K5.1_C5.1_H5.1_[+1CTCTC]_A5.1_F5.1_T5.1] | 1240
2 | UCUCUUUGUUCUCUAUUAUUAUCUCUU (ssRNA) [Ie_S1_P5E.1_K5.1_C5.1_H5.1_[+3TCTCT]_A5.1_F5.1_T5.1] | 85.1
3 | Ib_S2_P3E.1_K3.1_C3.1_H3.1_[T1G]_A3.1_F3.1_[A8G]_T3.1 (ssRNA) RNA: UUUGAUUAAUAUGAUAUCGUUCUUUCUGGUAUAUGUUCUUUCUCGAUAUCAUAUUAAUCUUU | 1140
4 | Ib_S2_P3E.1_K3.1_C3.1_H3.1_[G2C]_A3.1_F3.1_[A8C]_T3.1 (ssRNA) RNA: UUUGAUUAAUAUGAUAUCGUUCUUUCUUCUAUAUCUUCUUUCUCGAUAUCAUAUUAAUCUUU | > 2300
5 | Ia_S2_P3E.1_K3.1_C3.1_H3.1_[T1A]_A3.1_F3.1_T3.1 (ssRNA) RNA: UUUGAUUAAUAUGAUAUCGUUCUUUCUAGUAUAUAUUCUUUCUCGAUAUCAUAUUAAUCUUU | 931
6 | Ib_S2_P3E.1_K3.1_C3.1_H3.1_[G2T]_A3.1_F3.1_[A8C]_T3.1 (ssRNA) RNA: UUUGAUUAAUAUGAUAUCGUUCUUUCUUUUAUAUCUUCUUUCUCGAUAUCAUAUUAAUCUUU | > 2300
7 | Ib_S2_P3E.1_K3.1_C3.1_H3.1_[T1A]_A3.1_F3.1_[A8G]_T3.1 (ssRNA) RNA: UUUGAUUAAUAUGAUAUCGUUCUUUCUAGUAUAUGUUCUUUCUCGAUAUCAUAUUAAUCUUU | > 2300
8 | Ib_S2_P3E.1_K3.1_C3.1_H3.1_[T1G]_A3.1_F3.1_[A8T]_T3.1 (ssRNA) RNA: UUUGAUUAAUAUGAUAUCGUUCUUUCUGGUAUAUUUUCUUUCUCGAUAUCAUAUUAAUCUUU | 955
9 | Ib_S2_P3E.1_K3.1_C3.1_H3.1_[T1C]_A3.1_F3.1_[A8G]_T3.1 (ssRNA) RNA: UUUGAUUAAUAUGAUAUCGUUCUUUCUCGUAUAUGUUCUUUCUCGAUAUCAUAUUAAUCUUU | > 2300
10 | UCUCUUUGUACUUUUAUUAUCUCUU (ssRNA) [Ie_S1_P5E.1_K5.1_C5.1_H5.1_[+4CTT]_A5.1_F5.1_T5.1] | 4.31
11 | UCUCUUUGUAUUCUUAUUAUCUCUU (ssRNA) [Ie_S1_P5E.1_K5.1_C5.1_H5.1_A5.1_[+5TCT]_F5.1_T5.1] | 7.13
12 | UCUCUUUUUCCGUAUUAUUAUCUCUU (ssRNA) [Ie_S1_P5E.1_K5.1_C5.1_H5.1_[+1TTCC]_A5.1_F5.1_T5.1] | > 2300
13 | UCUCUUUGUAUCCUUAUUAUCUCUU (ssRNA) [Ie_S1_P5E.1_K5.1_C5.1_H5.1_[+4TCC]_A5.1_F5.1_T5.1] | 11
14 | UCUCUUUGUACCUUUAUUAUCUCUU (ssRNA) [Ie_S1_P5E.1_K5.1_C5.1_H5.1_[+4CCT]_A5.1_F5.1_T5.1] | 6.7
15 | UCUCUUUGUAUUUCUAUUAUCUCUU (ssRNA) [Ie_S1_P5E.1_K5.1_C5.1_H5.1_A5.1_[+5TTC]_F5.1_T5.1] | 6.57
16 | UCUCUUUCUCUGUAUUAUUAUCUCUU (ssRNA) [Ie_S1_P5E.1_K5.1_C5.1_H5.1_[+1CTCT]_A5.1_F5.1_T5.1] | 7.73
17 | UCUCUUUGUCCUAUUAUUAUCUCUU (ssRNA) [Ie_S1_P5E.1_K5.1_C5.1_H5.1_[+3CCT]_A5.1_F5.1_T5.1] | 110
18 | UCUCUUUGUACCCUUUUAUUAUCUCUU (ssRNA) [Ie_S1_P5E.1_K5.1_C5.1_H5.1_[+4CCCTT]_A5.1_F5.1_T5.1] | 42.3
19 | UCUCUUUCCCUGUAUUAUUAUCUCUU (ssRNA) [Ie_S1_P5E.1_K5.1_C5.1_H5.1_[+1CCCT]_A5.1_F5.1_T5.1] | 5.88
20 | UCUCUUUGCUCUUAUUAUUAUCUCUU (ssRNA) [Ie_S1_P5E.1_K5.1_C5.1_H5.1_[+2CTCT]_A5.1_F5.1_T5.1] | > 2300

Row | Binder | Kd [nM]
21 | UCUCUUUGUCUAUUAUUAUCUCUU (ssRNA) [Ie_S1_P5E.1_K5.1_C5.1_H5.1_[+2TC]_A5.1_F5.1_T5.1] | 18.6
22 | UCUCUUUGUUUCAUUAUUAUCUCUU (ssRNA) [Ie_S1_P5E.1_K5.1_C5.1_H5.1_[+3TTC]_A5.1_F5.1_T5.1] | 22.2
23 | UCUCUUUGUCUCUAUUAUUAUCUCUU (ssRNA) [Ie_S1_P5E.1_K5.1_C5.1_H5.1_[+2TCTC]_A5.1_F5.1_T5.1] | 405
24 | UCUCUUUUUUGUAUUAUUAUCUCUU (ssRNA) [Ie_S1_P5E.1_K5.1_C5.1_H5.1_[+1TTT]_A5.1_F5.1_T5.1] | 6.28
25 | UCUCUUUGUCAUUAUUAUCUCUU (ssRNA) [Ie_S1_P5E.1_K5.1_C5.1_H5.1_[+3C]_A5.1_F5.1_T5.1] | 99.4
26 | UCUCUUUGUUCUCAUUAUUAUCUCUU (ssRNA) [Ie_S1_P5E.1_K5.1_C5.1_H5.1_[+3TCTC]_A5.1_F5.1_T5.1] | 456
27 | UCUCUUUGUUUCCAUUAUUAUCUCUU (ssRNA) [Ie_S1_P5E.1_K5.1_C5.1_H5.1_[+3TTCC]_A5.1_F5.1_T5.1] | 126
28 | UCUCUUUGUUUUAUUAUUAUCUCUU (ssRNA) [Ie_S1_P5E.1_K5.1_C5.1_H5.1_[+3TTT]_A5.1_F5.1_T5.1] | 28.2
29 | UCUCUUUUCUGUAUUAUUAUCUCUU (ssRNA) [Ie_S1_P5E.1_K5.1_C5.1_H5.1_[+1TCT]_A5.1_F5.1_T5.1] | 4.9
30 | UCUCUUUGUCCUCAUUAUUAUCUCUU (ssRNA) [Ie_S1_P5E.1_K5.1_C5.1_H5.1_[+3CCTC]_A5.1_F5.1_T5.1] | 738
31 | UCUCUUUGUAUCUCUCUAUUAUCUCUU (ssRNA) [Ie_S1_P5E.1_K5.1_C5.1_H5.1_A5.1_[+5CTCTC]_F5.1_T5.1] | 36
32 | UCUCUUUGUUCUAUUAUUAUCUCUU (ssRNA) [Ie_S1_P5E.1_K5.1_C5.1_H5.1_[+3TCT]_A5.1_F5.1_T5.1] | 32.9
33 | UCUCUUUGUACUCUUUAUUAUCUCUU (ssRNA) [Ie_S1_P5E.1_K5.1_C5.1_H5.1_[+4CTCT]_A5.1_F5.1_T5.1] | 13.1
34 | UCUCUUUGUCUCAUUAUUAUCUCUU (ssRNA) [Ie_S1_P5E.1_K5.1_C5.1_H5.1_[+3CTC]_A5.1_F5.1_T5.1] | 36.6
35 | UCUCUUUGUAUUCCUUUAUUAUCUCUU (ssRNA) [Ie_S1_P5E.1_K5.1_C5.1_H5.1_[+4TTCCT]_A5.1_F5.1_T5.1] | 48.5
36 | UCUCUUUGUCCCAUUAUUAUCUCUU (ssRNA) [Ie_S1_P5E.1_K5.1_C5.1_H5.1_[+3CCC]_A5.1_F5.1_T5.1] | 66.2
37 | UCUCUUUGUCUCUCAUUAUUAUCUCUU (ssRNA) [Ie_S1_P5E.1_K5.1_C5.1_H5.1_[+3CTCTC]_A5.1_F5.1_T5.1] | 1410
38 | UCUCUUUGUCCCUUAUUAUUAUCUCUU (ssRNA) [Ie_S1_P5E.1_K5.1_C5.1_H5.1_[+3CCCTT]_A5.1_F5.1_T5.1] | 884
39 | UCUCUUUGUAUUCUCUUAUUAUCUCUU (ssRNA) [Ie_S1_P5E.1_K5.1_C5.1_H5.1_A5.1_[+5TCTCT]_F5.1_T5.1] | 29.4
40 | UCUCUUUGUCCUCUAUUAUUAUCUCUU (ssRNA) [Ie_S1_P5E.1_K5.1_C5.1_H5.1_[+3CCTCT]_A5.1_F5.1_T5.1] | 397

Row | Binder | Kd [nM]
41 | UCUCUUUGUUUCCUAUUAUUAUCUCUU (ssRNA) [Ie_S1_P5E.1_K5.1_C5.1_H5.1_[+3TTCCT]_A5.1_F5.1_T5.1] | 139
42 | UCUCUUUGUAUUUUUAUUAUCUCUU (ssRNA) [Ie_S1_P5E.1_K5.1_C5.1_H5.1_A5.1_[+6TTT]_F5.1_T5.1] | 4.32
43 | UCUCUUUGUUCCAUUAUUAUCUCUU (ssRNA) [Ie_S1_P5E.1_K5.1_C5.1_H5.1_[+3TCC]_A5.1_F5.1_T5.1] | 36.5
44 | UCUCUUUGUACCUCUUUAUUAUCUCUU (ssRNA) [Ie_S1_P5E.1_K5.1_C5.1_H5.1_[+4CCTCT]_A5.1_F5.1_T5.1] | 35.4
45 | UCUCUUUGCUUUAUUAUUAUCUCUU (ssRNA) [Ie_S1_P5E.1_K5.1_C5.1_H5.1_[+2CTT]_A5.1_F5.1_T5.1] | 1920
46 | UCUCUUUGUUAUUAUUAUCUCUU (ssRNA) [Ie_S1_P5E.1_K5.1_C5.1_H5.1_[+2T]_A5.1_F5.1_T5.1] | 64.9
47 | UCUCUUUGUCUUAUUAUUAUCUCUU (ssRNA) [Ie_S1_P5E.1_K5.1_C5.1_H5.1_[+3CTT]_A5.1_F5.1_T5.1] | 41.9
48 | UCUCUUUCCUCGUAUUAUUAUCUCUU (ssRNA) [Ie_S1_P5E.1_K5.1_C5.1_H5.1_[+1CCTC]_A5.1_F5.1_T5.1] | 1350
49 | UCUCUUUGUCUCUUAUUAUUAUCUCUU (ssRNA) [Ie_S1_P5E.1_K5.1_C5.1_H5.1_[+2TCTCT]_A5.1_F5.1_T5.1] | 332
50 | UCUCUUUGCUCUAUUAUUAUCUCUU (ssRNA) [Ie_S1_P5E.1_K5.1_C5.1_H5.1_[+2CTC]_A5.1_F5.1_T5.1] | > 2300
51 | UCUCUUUGCUUAUUAUUAUCUCUU (ssRNA) [Ie_S1_P5E.1_K5.1_C5.1_H5.1_[+2CT]_A5.1_F5.1_T5.1] | 2090
52 | UCUCUUUGUUUAUUAUUAUCUCUU (ssRNA) [Ie_S1_P5E.1_K5.1_C5.1_H5.1_[+2TT]_A5.1_F5.1_T5.1] | 8.58
53 | UCUCUUUCCCUUGUAUUAUUAUCUCUU (ssRNA) [Ie_S1_P5E.1_K5.1_C5.1_H5.1_[+1CCCTT]_A5.1_F5.1_T5.1] | 5.34
54 | UCUCUUUGUUCAUUAUUAUCUCUU (ssRNA) [Ie_S1_P5E.1_K5.1_C5.1_H5.1_[+3TC]_A5.1_F5.1_T5.1] | 10.9
55 | UCUCUUUGUCCCUAUUAUUAUCUCUU (ssRNA) [Ie_S1_P5E.1_K5.1_C5.1_H5.1_[+3CCCT]_A5.1_F5.1_T5.1] | 1100
56 | UCUCUUUUCUCUGUAUUAUUAUCUCUU (ssRNA) [Ie_S1_P5E.1_K5.1_C5.1_H5.1_[+1TCTCT]_A5.1_F5.1_T5.1] | 7.43
57 | UCUCUUUCCUCUGUAUUAUUAUCUCUU (ssRNA) [Ie_S1_P5E.1_K5.1_C5.1_H5.1_[+1CCTCT]_A5.1_F5.1_T5.1] | 4.35
58 | UCUCUUUUCUCGUAUUAUUAUCUCUU (ssRNA) [Ie_S1_P5E.1_K5.1_C5.1_H5.1_[+1TCTC]_A5.1_F5.1_T5.1] | 1230
59 | UCUCUUUCUUGUAUUAUUAUCUCUU (ssRNA) [Ie_S1_P5E.1_K5.1_C5.1_H5.1_[+1CTT]_A5.1_F5.1_T5.1] | 4.33
